This passage reports IC50 (µg/mL), IL-6 induced TF-1 proliferation results from patent US20220105163A1.

Assay [1] deals with Recombinant human IL-6 (human) (UniProt P05231). Description: cell-based or functional assay.
Assay [2] deals with IL-6 receptor on TF-1 cells (human) (UniProt P08887). In words: cell-based or functional assay.
Sequence of IL-6 receptor on TF-1 cells (human) (P08887 20-468): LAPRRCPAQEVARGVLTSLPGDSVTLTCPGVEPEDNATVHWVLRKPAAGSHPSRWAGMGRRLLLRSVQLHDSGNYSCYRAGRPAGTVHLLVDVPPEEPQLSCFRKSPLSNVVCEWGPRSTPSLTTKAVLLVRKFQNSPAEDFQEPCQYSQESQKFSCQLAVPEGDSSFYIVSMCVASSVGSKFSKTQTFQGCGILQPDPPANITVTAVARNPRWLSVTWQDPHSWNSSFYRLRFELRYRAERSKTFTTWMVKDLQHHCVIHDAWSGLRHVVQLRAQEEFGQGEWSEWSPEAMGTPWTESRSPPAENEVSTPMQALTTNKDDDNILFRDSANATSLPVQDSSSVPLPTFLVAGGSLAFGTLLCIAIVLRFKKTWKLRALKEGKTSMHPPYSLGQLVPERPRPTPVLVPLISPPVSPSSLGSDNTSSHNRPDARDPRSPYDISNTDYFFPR

Sequence of Recombinant human IL-6 (human) (P05231 30-212 limits assumed): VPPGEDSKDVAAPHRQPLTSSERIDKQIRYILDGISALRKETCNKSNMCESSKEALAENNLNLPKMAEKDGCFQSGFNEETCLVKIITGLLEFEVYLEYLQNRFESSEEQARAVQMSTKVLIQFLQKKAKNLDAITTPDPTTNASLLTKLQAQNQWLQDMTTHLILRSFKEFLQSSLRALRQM

For the substance Non GP IgG (antibody), the IC50 (µg/mL), IL-6 induced TF-1 proliferation in assay [1] is over 100 µg/mL.

The substance Tocilizumab (antibody) gave an IC50 (µg/mL), IL-6 induced TF-1 proliferation in assay [2] of 0.365 µg/mL.
